B1: hAB5 (scFv)
scFv: EVQLVQSGGGVVQPGGTLRLTCAASGYTFTNYGMNWVRQAPGKGLEWVGWINTYTGEPTYAADFKRRVTFSLDTSKSTAYLQMNSLRAEDTAVYYCAKYPHYYGSSHWYFDVWGQGTLVTVSSGGGGSGGGGSGGGGSDIQMTQSPSSLSASVGDRVTITCSASQDISNYLNWYQQKPGKAPKVLIYFTSSLHSGVPSRFSGSGSGTDFTLTISSLQPEDFATYYCQQYSTVPWTFGQGTKVEIK
notes: Single chain format; not shown: HA-His6 tag at C-terminus
B2: hAB9 (scFv)
scFv: EVQLVQSGGGVVQPGGSLRLSCAASGYTFTNYGMNWVRQAPGKGLEWVGWINTYTGEPTYAADFKRRFTFSLDTSKSTAYLQMNSLRAEDTAVYYCAKYPYYYGRSHWYFDVWGQGTLVTVSSGGGGSGGGGSGGGGSDIQLTQSPSSLSASAGDRVTISCSASQDISNYLNWYQQKPGKAPQLLIYFTSSLHSGVPSRFSGSGSGTDFTLTISSLQPEDFATYYCQQYSTVPWTFGQGTKVEIK
notes: as for B1
B3: hAB10 (scFv)
scFv: EVQLVESGGGLVQPGGSLRLSCAASGYTFTNYGMNWVRQAPGKGLEWVGWINTYTGEPTYAADFKRRFTFSLDTSKSTAYLQMNSLRAEDTAVYYCAKYPYYYGTSHWYFDVWGQGTLVTVSSGGGGSGGGGSGGGGSDIQMTQSPSSLSASVGDRVTITCSASQDISNYLNWYQQKPGKAPKVLIYFTSSLHSGVPSRFSGSGSGTDFTLTISSLQPEDFATYYCQQYSTVPWTFGQGTKVEIK
notes: as for B1
B4: hAB11 (scFv)
scFv: EVQLVESGGGLVQPGGSLRLSCAASGYTFTNYGMNWVRQAPGKGLEWVGWINTYTGEPTYAADFKRRFTFSLDTSKSTAYLQMNSLRAEDTAVYYCAKYPHYYGRSHWYFDVWGQGTLVTVSSGGGGSGGGGSGGGGSDIQMTQSPSSLSASVGDRVTITCSASQDISNYLNWYQQKPGKAPKVLIYFTSSLHSGVPSRFSGSGSGTDFTLTISSLQPEDFATYYCQQYSTVPWTFGQGTKVEIK
notes: as for B1
B5: hAB12 (scFv)
scFv: EVQLVESGGGLVQPGGSLRLSCAASGYTFTNYGMNWVRQAPGKGLEWVGWINTYTGEPTYAADFKRRFTFSLDTSKSTAYLQMNSLRAEDTAVYYCAKYPYYYGRSHWYFDVWGQGTLVTVSSGGGGSGGGGSGGGGSDIQMTQSPSSLSASVGDRVTITCSASQDISNYLNWYQQKPGKAPKVLIYFTSSLHSGVPSRFSGSGSGTDFTLTISSLQPEDFATYYCQQYSTVPWTFGQGTKVEIK
notes: as for B1
B6: hAB7 (scFv)
scFv: EVQLVQSGGGVVQPGGSLRLSCAASGYTFTNYGMNWVRQAPGKGLEWVGWINTYTGEPTYAADFKRRFTFSLDTSKSTAYLQMNSLRAEDTAVYYCAKYPYYYGRSHWYFDVWGQGTLVTVSSGGGGSGGGGSGGGGSDIQMTQSPSSLSASVGDRVTITCSASQDISNYLNWYQQKPGKAPKVLIYFTSSLHSGVPSRFSGSGSGTDFTLTISSLQPEDFATYYCQQYSTVPWTFGQGTKVEIK
notes: as for B1
B7: hAB8 (scFv)
scFv: EVQLVQSGGGVVQPGGSLRLSCAASGYTFTNYGMNWIRQAPGKGLEWVGWINTYTGEPTYAADFKRRVTFSLDTSKSTAYLQLNSLRAEDTAVYYCAKYPYYYGRSHWYFDVWGQGTLVTVSSGGGGSGGGGSGGGGSDIQMTQSPSSLSASVGDRVTITCSASQDISNYLNWYQQKPGKAPKVLIYFTSSLHSGVPSRFSGSGSGTDFTLTISSLQPEDFATYYCQQYSTVPWTFGQGTKVEIK
notes: as for B1
B8: hAB35 (scFv)
scFv: EVQLVQSGGGVVQPGGSLRLSCAASGYDFTHFGLNWIRQAPGKGPEWVGWINTYTGEPTYAQDFKRRVTFSLDTSKSTAYLQLNSLRAEDTAVYYCAKYPYYYGRSHWYFDVWGQGTLVTVSSGGGGSGGGGSGGGGSDIVMTQSPSTLSASPGERATITCNASQSIGSYLAWYQQKPGQAPKVLIYGASNLASGVPSRFSGSRSGTDFTLTISSLQPEDFAVYYCQQYNSTPWTFGGGTKLEIK
notes: as for B1
B9: hAB16 (scFv)
scFv: EVQLVQSGGGVVQPGGSLRLSCAASGYTFTNYGMNWIRQAPGKGLEWVGWINTYTGEPTYAADFKRRVTFSLDTSKSTAYLQLNSLRAEDTAVYYCAKYPYYYGRSHWYFDVWGQGTLVTVSSGGGGSGGGGSGGGGSDIVMTQSPSTLSASPGERATITCNASQSIGSYLAWYQQKPGQAPKVLIYGASNLASGVPSRFSGSRSGTDFTLTISSLQPEDFAVYYCQQYNSTPWTFGGGTKLEIK
notes: as for B1
B10: hAB36 (scFv)
scFv: EVQLVQSGGGVVQPGGSLRLSCAASGYDLSHYGLNWIRQAPGKGPEWVGWINTYTGEPTYAPDFTRRVTFSLDTSKSTAYLQLNSLRAEDTAVYYCAKYPYYYGRSHWYFDVWGQGTLVTVSSGGGGSGGGGSGGGGSDIVMTQSPSTLSASPGERATITCNASQSIGSYLAWYQQKPGQAPKVLIYGASNLASGVPSRFSGSRSGTDFTLTISSLQPEDFAVYYCQQYNSTPWTFGGGTKLEIK
notes: as for B1
B11: hAB37 (scFv)
scFv: EVQLVQSGGGVVQPGGSLRLSCAASGYNFSHFGLNWLRQAPGKGLEWVGWINTYNGETTYAPDFKRRVTFSLDTSKSTAYLQLNSLRAEDTAVYYCAKYPYYYGRSHWYFDVWGQGTLVTVSSGGGGSGGGGSGGGGSDIVMTQSPSTLSASPGERATITCNASQSIGSYLAWYQQKPGQAPKVLIYGASNLASGVPSRFSGSRSGTDFTLTISSLQPEDFAVYYCQQYNSTPWTFGGGTKLEIK
notes: as for B1
B12: hAB38 (scFv)
scFv: EVQLVQSGGGVVQPGGSLRLSCAASGYNFSHFGLNWLRQAPGKGPEWVGWINTYTGEPTYAPEFKRRVTFSLDTSKSTAYLQLNSLRAEDTAVYYCAKYPYYYGRSHWYFDVWGQGTLVTVSSGGGGSGGGGSGGGGSDIVMTQSPSTLSASPGERATITCNASQSIGSYLAWYQQKPGQAPKVLIYGASNLASGVPSRFSGSRSGTDFTLTISSLQPEDFAVYYCQQYNSTPWTFGGGTKLEIK
notes: as for B1
B13: hAB39 (scFv)
scFv: EVQLVQSGGGVVQPGGSLRLSCAASGYDFTHFGLNWVRQAPGKGLEWVGWVNTYTGETTYAHEFKRRVTFSLDTSKSTAYLQLNSLRAEDTAVYYCAKYPYYYGRSHWYFDVWGQGTLVTVSSGGGGSGGGGSGGGGSDIVMTQSPSTLSASPGERATITCNASQSIGSYLAWYQQKPGQAPKVLIYGASNLASGVPSRFSGSRSGTDFTLTISSLQPEDFAVYYCQQYNSTPWTFGGGTKLEIK
notes: as for B1
B14: hAB14 (scFv)
scFv: EVQLVQSGGGVVQPGGSLRLSCAASGYTFTNYGMNWIRQAPGKGLEWVGWINTYTGEPTYAADFKRRVTFSLDTSKSTAYLQLNSLRAEDTAVYYCAKYPYYYGRSHWYFDVWGQGTLVTVSSGGGGSGGGGSGGGGSAIRMTQSPSSVSASVGDTVTIACRASQAIRNDLTWYQQKPGTAPKLLIYGATTLQSGVPSRFSGSGSGTDFTLTISSLQPEDFATYYCQQSSTTPWTFGQGTKVDIK
notes: as for B1
B15: hAB15 (scFv)
scFv: EVQLVQSGGGVVQPGGSLRLSCAASGYTFTNYGMNWIRQAPGKGLEWVGWINTYTGEPTYAADFKRRVTFSLDTSKSTAYLQLNSLRAEDTAVYYCAKYPYYYGRSHWYFDVWGQGTLVTVSSGGGGSGGGGSGGGGSDIVMTQSPSTLSASPGERATITCHASQSISTYLAWYQQKPGQAPRVLIYGASNLASGVPNRFSGSGSGTDFTLTISSLQPEDFAVYYCQQYNSAPWTFGGGTKVEIK
notes: as for B1

These binders were tested against T1, purified recombinant human VEGF165 (human, UniProt P15692 27-191, glycosylated) (assay: SPR (BIAcore), purified scFv over VEGF immobilized on CM5 chip, 25 C).
T1 construct: mature; Bought from Calbiochem; also called VEGF protein (Calbiochem); homodimeric VEGF protein
T1 sequence (P15692 other isoform, or with tags, fused parts or gaps limits assumed): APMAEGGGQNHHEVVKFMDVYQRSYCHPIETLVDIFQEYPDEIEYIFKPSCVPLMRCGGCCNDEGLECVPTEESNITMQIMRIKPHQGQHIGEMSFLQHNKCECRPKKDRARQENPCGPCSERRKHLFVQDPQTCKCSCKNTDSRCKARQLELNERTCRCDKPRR
Protocol: (§1) Antibody fragments in the format of single chain were expressed as described below and purified. The measurement was done by measuring the change of SPR units (y-axis) vs time (x-axis) when a purified antibody binds its antigen (VEGF) immobilized on the CM5 biochip at 25° C. Kd values were calculated by the […].
(§2) BIAcore Biosensor Assay was used to determine antibody affinity. VEGF protein (purchased from Calbiochem) was coupled to a CM-5 biosensor ship by amine coupling. After immobilization, CM-5 chips with 200 to 1000 response unites of VEGF were kept at 4° C. before use. All experiments were performed at 25° C. or 35° C. Each sample in PBS buffer was injected over VEGF surface at a flow rate of 20 ul/min using Biacore 1000 (Biacore AB, Sweden), and bound antibodies were removed from chip by 10 ul of glycine-HCl, PH 1.5 at the end of each cycle. Each sensorgram was recorded and normalized to a PBS base line.
B1 was tested, and the Kd was 5.9 nM, the “hAB1 Kd/Variant Kd” value was 2.2 and the koff was 7.2e-05 s⁻¹. For the same binder, the kon was 12200 M⁻¹ s⁻¹. In the case of B2, the Kd is reported as 4.9 nM, the “hAB1 Kd/Variant Kd” value is reported as 2.7 and the koff is reported as 1.4e-05 s⁻¹. For the same binder, the kon was 2900 M⁻¹ s⁻¹. For B3, the Kd was 2.2 nM, the “hAB1 Kd/Variant Kd” value was 6.3 and the koff was 3e-06 s⁻¹. For the same binder, the kon was 1100 M⁻¹ s⁻¹. For B4, the Kd was 5.4 nM, the “hAB1 Kd/Variant Kd” value was 2.6 and the koff was 8.7e-05 s⁻¹. The kon was 15900 M⁻¹ s⁻¹. With B5 the Kd was 1.5 nM, the “hAB1 Kd/Variant Kd” value was 9.2 and the koff was 3e-06 s⁻¹. For the same binder, the kon was 2300 M⁻¹ s⁻¹.

Each binder was assayed against T1, purified recombinant human VEGF165 (assay: SPR (BIAcore), purified scFv over VEGF immobilized on CM5 chip, 35 C).
Protocol: as §1, with “35°” for “25°”
as §2
For B6, the Kd was 1.1 nM, the “hAB1 Kd/Variant Kd” value was 37.6 and the koff was 9e-06 s⁻¹. For the same binder, the kon was 8500 M⁻¹ s⁻¹. For B7, the Kd was 1.1 nM, the “hAB1 Kd/Variant Kd” value was 37.6 and the koff was 1.7e-05 s⁻¹. It also gave a kon of 15800 M⁻¹ s⁻¹. With B8 the Kd was 0.7 nM, the “hAB1 Kd/Variant Kd” value was 59.1 and the koff was 6.2e-05 s⁻¹. For the same binder, the kon was 82800 M⁻¹ s⁻¹. For B9, the Kd was 1.6 nM, the “hAB1 Kd/Variant Kd” value was 25.9 and the koff was 4.7e-05 s⁻¹. The kon was 29300 M⁻¹ s⁻¹. In the case of B10, the Kd is reported as 0.7 nM, the “hAB1 Kd/Variant Kd” value is reported as 59.1 and the koff is reported as 3.7e-05 s⁻¹. The kon was 47500 M⁻¹ s⁻¹. With B11 the Kd was 0.8 nM, the “hAB1 Kd/Variant Kd” value was 51.8 and the koff was 4.4e-05 s⁻¹. It also gave a kon of 57300 M⁻¹ s⁻¹. With B12 the Kd was 0.9 nM, the “hAB1 Kd/Variant Kd” value was 46 and the koff was 4.8e-05 s⁻¹. For the same binder, the kon was 50000 M⁻¹ s⁻¹. B13 was tested, and the Kd was 1.8 nM, the “hAB1 Kd/Variant Kd” value was 23 and the koff was 4.8e-05 s⁻¹. For the same binder, the kon was 28400 M⁻¹ s⁻¹. B14 was tested, and the Kd was 3.6 nM, the “hAB1 Kd/Variant Kd” value was 11.5 and the koff was 6.2e-05 s⁻¹. It also gave a kon of 17100 M⁻¹ s⁻¹. B15 was tested, and the Kd was 3.7 nM, the “hAB1 Kd/Variant Kd” value was 11.2 and the koff was 8.6e-05 s⁻¹. The kon was 23400 M⁻¹ s⁻¹.
